Series [1] concerns the target Sac10b2 (Sulfolobus acidocaldarius). Kind of series: AUC.
The series “AUC” concerns the molecule itself. Kind of series: AUC.

Where a chain is given by its changes, count along the chain named. Names and notes keep the numbering of the source.

What is called stoichiometry N is a count of units in the complex or per binding partner. In series [1], Sac10b2 (natural protein) displayed a stoichiometry N of 2.

B1: Sac10b1 (natural protein, Sulfolobus acidocaldarius)
chain: MSSGATPSNVVLVGKKPVMNYVLAALTLLNQGVSEITIKARGRAISKAVDTVEIVRNRFLPDKIEVKEIRIGSQVVTSQDGRQSRVSTIEIGIRKKA
For B1, the “stoichiometry N” value in “AUC” turned out to be 2.

B2: Sac10b1 F59A (natural protein, Sulfolobus acidocaldarius)
chain: B1 chain with F59A
Take B2: the “stoichiometry N” value in the series “AUC” was determined as 2.

B3: Sac10b1 R58A (natural protein, Sulfolobus acidocaldarius)
chain: B1 chain with R58A
In the case of B3, the binding result in the series “AUC” was “binds”.

The values above are taken from paper PMC11167270 (Heliyon, 2024).
